# Laboratory results reported in patent publication US20200317776A1 (published 2020).
# Changes are numbered by the printed parent chain.
# B1: AL2p-21 (antibody, V domains shown)
# VH: QVQLVQSGAEVKKPGSSVKVSCKASGYAFSSHWMNWVRQAPGQGLEWMGRIYPGDGDTNYAWKFQGRVTITADESTSTAYMELSSLRSEDTAVYYCARLLRNQPGESYAMDYWGQGTLVTVSS
# VL: GVVMTQTPLSLSVTPGQPASISCRSSSSLVHSNGYTYLHWYLQKPGQSPQLLIYKVSNRKSGVPDRFSGSGSGTDFTLKISRVEAEDVGVYYCSQSTRVPYTFGQGTKLEIK
# notes: Fab and IgG formats under one id
# B2: AL2p-32 (antibody, V domains shown)
# VH: B1 VH with H32E, W62Q
# VL: B1 VL with S27Q, K60R
# notes: as for B1
# B3: AL2p-22 (antibody, V domains shown)
# VH: B1 VH with W62Y
# VL: B1 VL with S27R, K60R
# notes: as for B1
# B4: AL2p-25 (antibody, V domains shown)
# VH: B1 VH with D55G, W62Q, Q65R
# VL: B1 VL with S25T, S27Q, K60V
# notes: as for B1
# B5: AL2p-24 (antibody, V domains shown)
# VH: B1 VH with D55G, W62Q
# VL: B1 VL with S27R, K60F
# notes: as for B1
# B6: AL2p-28 (antibody, V domains shown)
# VH: B1 VH with D55V, W62Q
# VL: B1 VL with S25T, S27Q, K60V
# notes: as for B1
# B7: AL2p-30 (antibody, V domains shown)
# VH: B1 VH with H32Q
# VL: B1 VL
# notes: as for B1
# B8: AL2p-33 (antibody, V domains shown)
# VH: B1 VH with Q1E, H32S, W62Q
# VL: B1 VL with T5A, S25T, S27Q, K60V
# notes: as for B1
# B9: AL2p-27 (antibody, V domains shown)
# VH: B1 VH with D55Q, W62Q
# VL: B1 VL with S27R, K60V
# notes: as for B1
# B10: AL2p-43 (antibody, V domains shown)
# VH: B1 VH with D55G, W62R, Q65R, E106A
# VL: B1 VL with S27R, G34R, K60R
# notes: as for B1
# B11: AL2p-44 (antibody, IgG1, V domains shown)
# VH: B1 VH with D55G, W62R, Q65R, E106A
# VL: B1 VL with S25T, S27R, G34R, K60R
# notes: as for B1
# B12: AL2p-41 (antibody, IgG1, V domains shown)
# VH: B1 VH with D55E, W62Q, Q65R, E106A
# VL: B1 VL with S27R, G34Q, K60R
# notes: as for B1
# B13: AL2p-45 (antibody, V domains shown)
# VH: B1 VH with H32D, D55E, W62R, Q103K
# VL: B1 VL with G1D, S25T, S27Q, G34A, K60V
# notes: as for B1
# B14: AL2p-39 (antibody, V domains shown)
# VH: B1 VH with D55G, W62Q, Q65R, E106A
# VL: B1 VL with S27R, G34Q, K60R
# notes: as for B1
# B15: AL2p-42 (antibody, V domains shown)
# VH: B1 VH with D55E, W62Q, Q65R, E106A
# VL: B1 VL with S25T, S27R, G34R, K60R
# notes: as for B1
# B16: AL2p-38 (antibody, V domains shown)
# VH: B1 VH with D55G, W62Q, Q65R, E106A
# VL: B1 VL with S27R, G34R, K60R
# notes: as for B1
# B17: AL2p-40 (antibody, IgG1, V domains shown)
# VH: B1 VH with D55G, W62Q, Q65R, E106A
# VL: B1 VL with S25T, S27R, G34R, K60R
# notes: as for B1
# Target: T1, human TREM2 Fc fusion (entire TREM2 ECD; only one Fc arm fused to TREM2) (human, UniProt Q9NZC2 19-174)
# T1 construct: also called huTREM2-Fc; recombinant hTREM2
# T1 sequence: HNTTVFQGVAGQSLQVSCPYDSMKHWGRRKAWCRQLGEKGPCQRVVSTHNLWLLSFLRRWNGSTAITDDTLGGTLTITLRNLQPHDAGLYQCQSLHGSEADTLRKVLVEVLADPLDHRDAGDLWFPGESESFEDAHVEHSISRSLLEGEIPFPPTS
# Assay: BLI, IgG, avid
# Experimental: Briefly, IgGs were loaded on-line onto AHQ sensors, Sensors were equilibrated off-line in assay buffer for 30 minutes and then monitored on-line for 60 seconds for baseline establishment. For avid binding measurement, sensors with loaded IgGs were exposed to 100 nM antigen (human or cynomolgus monkey TREM2 Fe fusion using the entire TREM2 ECD; only one Fc arm was fused to TREM2) for 3 minutes, afterwards they were transferred to assay buffer for 3 minutes for off-rate measurement. Monovalent binding measurements were obtained by loading human TREM2 Fc fusion antigens to AHQ sensor and followed by exposure to 100 nM TREM2 antibody Fab. Kinetics data were fit using a 1:1 binding model in the data analysis software provided by ForteBio. Assay was run at room temperature (25° C.).
row,Binder,Kd [nM]
1,B1,0.399
2,B2,1.12
3,B3,0.219
4,B4,0.22
5,B5,0.233
6,B6,0.417
7,B7,0.377
8,B8,0.889
9,B9,0.274

# Target: T2, human TREM2 expressed on cells (human, UniProt Q9NZC2 19-230)
# T2 construct: BW5147.G.1.4 cells stably expressing human TREM2 together with Dap12, or endogenous TREM2 of primary human myeloid cells; also called huT2 BW; hTREM2 expressing cell line
# T2 sequence: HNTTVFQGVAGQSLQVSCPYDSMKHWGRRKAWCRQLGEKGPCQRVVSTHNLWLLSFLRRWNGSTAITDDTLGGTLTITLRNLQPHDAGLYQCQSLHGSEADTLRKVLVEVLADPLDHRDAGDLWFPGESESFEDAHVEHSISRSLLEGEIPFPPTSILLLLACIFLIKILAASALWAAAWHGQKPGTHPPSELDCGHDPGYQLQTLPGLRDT
# Assay: FACS, human DCs
# From the text: (§1) To examine cell binding of affinity matured anti-TREM2 antibodies, both primary human monocyte derived dendritic cells and recombinant, human TREM2 expressing cells were utilized. For the latter, BW5147.G.1.4 (ATCC® TIB48™) and HEK293T cells stably expressing human TREM2 together with Dap12 using viral infection were established. For primary human monocyte derived dendritic cells, human monocytes were isolated from whole blood using RosetteSep Human monocyte enrichment cocktail (Stemcell technologies) and Ficoll centrifugation per manufacturer protocols. After lysing red blood cells with ACK lysing buffer, monocytes were resuspended in complete media (RPMI, 10% FBS, Pen/Strep, L-glutamine, HEPES, non-essential amino acid, Sodium pyruvate) with 100 ng/ml human GM-CSF (hu-GMCSF) and, human IL-4 (hu-IL-4) to differentiate dendritic cells for 6 days.
# (§2) Cells were harvested by trypsinization (Hek293T) or scraping (BW and dendritic cells), washed in PBS, counted and plated on 96-well U bottom plates at […] cells/well. The plates were spun at 1,400 rpm for 3 minutes and primary TREM2 or control antibodies were added in FACS buffer (PBS+2% FBS) and incubated on ice for one hour. Cells were subsequently centrifuged as before and washed thrice with FACS buffer. Cells were then incubated with anti-human PE conjugated secondary antibody (BD Biosciences) in FACS buffer for 30 minutes on ice. Cells were again washed thrice with FACS buffer and analyzed on a BD FACS Canto or an Intellicyt Flow Cytometer. Binding was measured as mean fluorescence intensity in the APC channel.
row,Binder,MFI [MFI]
1,B10,1040
2,B11,1470
3,B12,534
4,B13,318
5,B14,590
6,B15,662
7,B16,499
8,B17,547

# Target: T1, human TREM2 Fc fusion (entire TREM2 …)
# Assay: BLI, Fab, monovalent
row,Binder,Kd [nM]
1,B1,4.15
2,B2,36
3,B10,0.493
4,B3,1.58
5,B11,0.41
6,B12,0.724
7,B4,2.34
8,B13,17.8
9,B14,0.631
10,B5,2.1
11,B15,0.829
12,B6,7.6
13,B7,6.5
14,B16,0.623
15,B8,10.3
16,B9,1.99
17,B17,0.602

# Target: T3, cynomolgus monkey TREM2 Fc fusion (entire TREM2 ECD; only one Fc arm fused to TREM2) (cynomolgus monkey, UniProt Q9NZC2 19-174 (human entry))
# T3 construct: also called cyno TREM2-Fc
# T3 chain: T1 sequence with A10E, W60R, L89F, F125V
# Assay: BLI, Fab, monovalent
row,Binder,Kd [nM]
1,B1,3.84
2,B2,34.8
3,B10,0.36
4,B3,1.28
5,B11,0.271
6,B12,0.352
7,B4,1.76
8,B13,20.9
9,B14,0.346
10,B5,1.63
11,B15,0.312
12,B6,7.91
13,B7,5.66
14,B16,0.37
15,B8,0.884
16,B9,1.82
17,B17,0.37

# Target: T2, human TREM2 expressed on cells
# Assay: FACS, hTREM2 BW cells
# From the text: as §1, §2
row,Binder,Kd [nM]
1,B1,1.5
2,B2,2.8
3,B10,5.01
4,B3,1.5
5,B11,4.18
6,B12,1.31
7,B4,1.7
8,B13,1.54
9,B14,1.53
10,B5,1.7
11,B15,1.91
12,B6,2.2
13,B7,1.2
14,B16,4.79
15,B8,4.5
16,B9,1.5
17,B17,2.27

# Target: T4, human TREM2/DAP12 fusion protein (human, UniProt O43914 41-113, limits assumed)
# Assay: cell-based or functional assay
Binder,"Luciferase activation plate bound 33 nM IgG, FOC [FOC]","Luciferase activation soluble 10 nM IgG, FOC [FOC]"
B1,13.1,1.83
B2,4.9,1.47
B3,24.9,1.75
B4,22.3,2.35
B5,24.1,2.12
B6,9.27,2.14
B7,15.8,2.31
B8,3.21,1.72
B9,24.4,2.06

# Target: T2, human TREM2 expressed on cells
# Assay: cell-based or functional assay
Binder,DC viability (AUC),Mac viability (AUC)
B11,750000,74700
B12,860000,80700
B13,543000,3680
B14,851000,66900
B15,781000,57900
B16,786000,39000
B17,825000,63200

# Target: T4, human TREM2/DAP12 fusion protein
# Assay: cell-based or functional assay
# Remark: another data set of the same source
# Target sequence in this assay (O43914 other isoform, or with tags, fused parts or gaps limits assumed): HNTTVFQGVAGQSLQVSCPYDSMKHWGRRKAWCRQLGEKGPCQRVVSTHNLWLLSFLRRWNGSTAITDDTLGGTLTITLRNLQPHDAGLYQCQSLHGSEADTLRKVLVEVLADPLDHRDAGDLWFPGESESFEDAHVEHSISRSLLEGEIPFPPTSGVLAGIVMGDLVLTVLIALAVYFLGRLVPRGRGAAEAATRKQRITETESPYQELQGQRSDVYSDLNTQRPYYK
Binder,"BW Luc assay plate bound 7.3 nM IgG, FOC [FOC]","BW Luc assay soluble 7.3 nM IgG, FOC [FOC]"
B10,5.41,8.84
B11,7.17,11.5
B12,7.61,2.92
B13,2.29,2.38
B14,8.12,3.81
B15,6.52,5.95
B16,4.47,4.98
B17,8.49,9.92
